# Columns and labels:
# C. indologenes #3362 = system: T1, C. indologenes #3362; assay: microbe, parasite or virus in culture; design: species or system C. indologenes 3362; E. coli C41(DE3); Broth microdilution MIC, ISO 20776-1/EUCAST, cation-adjusted Mueller Hinton broth, after IPTG induction; details: Chryseobacterium indologenes; native isolate carrying IND-2 and CIM-1
# T1 construct: 3362
# Experimental: (§1) The in vitro minimum inhibitory concentration (MIC) of β-lactams including penicillins, cephalosporins, and carbapenems in C. indologenes 3362 and E. coli C41(DE3) carrying different constructs were determined using the broth microdilution assay according to the International Standard ISO 20776-1 as recommended by EUCAST (the European Committee on Antimicrobial Susceptibility Testing). Briefly, bacterial cultures were grown aerobically at 37 °C to an OD600 0.4–0.6 in the presence of 25 μg/mL kanamycin, when necessary, before 1 mM IPTG (isopropyl-β-d-thiogalactopyranoside) was added. The induction was allowed for 2 h at 37 °C before the bacterial culture was diluted to 4 × 10^6 CFU/mL, and the microbroth dilution assays were performed. Cation-adjusted Mueller Hinton (CAMH) broth was used. All assays were repeated at least four times on four different days with different batches of cells.
# [1] = system: T2, E. coli C41(DE3) with pET41a(+); assay: microbe, parasite or virus in culture; design: species or system C. indologenes 3362; E. coli C41(DE3); Broth microdilution MIC, ISO 20776-1/EUCAST, cation-adjusted Mueller Hinton broth, after IPTG induction; details: Escherichia coli; empty vector pET41a(+), IPTG induced
# T2 construct: C41(DE3) empty vector pET41a(+), control
# Experimental: as §1
# IND-2ΔSig [2] = biological target: T3, IND-2ΔSig (Chryseobacterium indologenes, UniProt Q9ETN2); assay: steady-state hydrolysis, UV absorbance […] nm, plate reader; type: biochemical; details: read-out: Km (μM) / IND-2ΔSig; 50 mM HEPES pH 7.0, 10 μM ZnSO4, 25 ± 2 °C, 100 nM enzyme
# T3 construct: gene blaIND-2b
# T3 sequence (Q9ETN2 entry or part of it, stated change not applied): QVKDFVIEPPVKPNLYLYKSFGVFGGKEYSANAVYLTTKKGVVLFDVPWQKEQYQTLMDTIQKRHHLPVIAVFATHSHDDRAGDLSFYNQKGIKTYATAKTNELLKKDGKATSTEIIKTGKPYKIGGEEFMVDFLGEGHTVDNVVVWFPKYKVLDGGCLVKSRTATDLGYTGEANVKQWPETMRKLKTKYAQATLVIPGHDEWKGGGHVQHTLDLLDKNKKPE
# IND-2ΔSig [3] = biological target: T3, IND-2ΔSig; assay: steady-state hydrolysis, UV absorbance, plate reader; details: read-out: Km (μM) / IND-2ΔSig; 50 mM HEPES pH 7.0, 10 μM ZnSO4, 25 ± 2 °C, 100 nM enzyme
# IND-2ΔSig [4] = biological target: T3, IND-2ΔSig; assay: steady-state hydrolysis, UV absorbance […] or […] nm, plate reader; details: read-out: Km (μM) / IND-2ΔSig; 50 mM HEPES pH 7.0, 10 μM ZnSO4, 25 ± 2 °C, 100 nM enzyme
# NDM-4ΔSig = biological target: T4, NDM-4ΔSig (Klebsiella pneumoniae, UniProt C7C422, M154L); assay: steady-state hydrolysis, absorbance […] nm, plate reader; type: biochemical; details: read-out: Km (μM) / NDM-4ΔSig; 50 mM HEPES pH 7.0, 10 μM ZnSO4, 25 ± 2 °C, 100 nM enzyme
# T4 construct: gene blaNDM-1
# T4 sequence (C7C422 26-270 M154L): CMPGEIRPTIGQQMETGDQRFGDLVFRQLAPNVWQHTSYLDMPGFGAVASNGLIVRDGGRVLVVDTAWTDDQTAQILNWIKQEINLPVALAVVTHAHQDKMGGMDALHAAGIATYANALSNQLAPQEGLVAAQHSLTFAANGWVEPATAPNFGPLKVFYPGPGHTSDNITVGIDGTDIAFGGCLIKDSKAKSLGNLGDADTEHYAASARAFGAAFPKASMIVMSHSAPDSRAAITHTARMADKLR
# [5] = system: CC(C)(O/N=C(\C(=O)N[C@@H]1C(=O)N2C(C(=O)[O-])=C(C[n+]3ccccc3)CS[C@H]12)c1csc(N)n1)C(=O)O; assay: purified protein; details: 50 mM HEPES pH 7.0, 10 μM ZnSO4, 25 ± 2 °C, 100 nM enzyme, 25.0 °C
# [6] = system: CO/N=C(\C(=O)N[C@@H]1C(=O)N2C(C(=O)[O-])=C(C[N+]3(C)CCCC3)CS[C@H]12)c1csc(N)n1; assay: purified protein; details: 50 mM HEPES pH 7.0, 10 μM ZnSO4, 25 ± 2 °C, 100 nM enzyme, 25.0 °C
# [7] = system: C[C@@H](O)[C@H]1C(=O)N2C(C(=O)O)=C(SCCN=CN)C[C@H]12; assay: purified protein; details: 50 mM HEPES pH 7.0, 10 μM ZnSO4, 25 ± 2 °C, 100 nM enzyme, 25.0 °C
# [8] = system: C[C@@H](O)[C@H]1C(=O)N2C(C(=O)O)=C(S[C@@H]3CN[C@H](C(=O)N(C)C)C3)[C@H](C)[C@H]12; assay: purified protein; details: 50 mM HEPES pH 7.0, 10 μM ZnSO4, 25 ± 2 °C, 100 nM enzyme, 25.0 °C
# [9] = system: C[C@@H](O)[C@H]1C(=O)N2C(C(=O)O)=C(S[C@@H]3CN[C@H](C(=O)Nc4cccc(C(=O)O)c4)C3)[C@H](C)[C@H]12; assay: purified protein; details: 50 mM HEPES pH 7.0, 10 μM ZnSO4, 25 ± 2 °C, 100 nM enzyme, 25.0 °C
# [10] = system: C[C@@H](O)[C@H]1C(=O)N2C(C(=O)O)=C(S[C@@H]3CN[C@H](CNS(N)(=O)=O)C3)[C@H](C)[C@H]12; assay: purified protein; details: 50 mM HEPES pH 7.0, 10 μM ZnSO4, 25 ± 2 °C, 100 nM enzyme, 25.0 °C
# Excerpt: steady-state hydrolysis, UV absorbance, plate reader on CIM-1ΔSig
# [11] = system: O=C(Cc1cccs1)N[C@@H]1C(=O)N2C(C(=O)O)=C(/C=C/c3ccc([N+](=O)[O-])cc3[N+](=O)[O-])CS[C@H]12; assay: purified protein; details: 50 mM HEPES pH 7.0, 10 μM ZnSO4, 25 ± 2 °C, 100 nM enzyme, 25.0 °C
# [12] = system: C[C@@H](O)[C@H]1C(=O)N2C(C(=O)O)=C(S[C@@H]3CN[C@H](C(=O)Nc4cccc(C(=O)O)c4)C3)[C@H](C)[C@H]12; assay: steady-state hydrolysis, UV absorbance, plate reader; type: biochemical, Klebsiella pneumoniae; details: 50 mM HEPES pH 7.0, 10 μM ZnSO4, 25 ± 2 °C, 100 nM enzyme, 25.0 °C
# Excerpt: (§2) steady-state hydrolysis, UV absorbance, plate reader on NDM-4ΔSig
# [13] = system: C[C@@H](O)[C@H]1C(=O)N2C(C(=O)O)=C(S[C@@H]3CN[C@H](CNS(N)(=O)=O)C3)[C@H](C)[C@H]12; assay: as above; type: biochemical, Klebsiella pneumoniae; details: 50 mM HEPES pH 7.0, 10 μM ZnSO4, 25 ± 2 °C, 100 nM enzyme, 25.0 °C
# Excerpt: as §2
# [14] = system: CC(C)(O/N=C(\C(=O)N[C@@H]1C(=O)N2C(C(=O)[O-])=C(C[n+]3ccccc3)CS[C@H]12)c1csc(N)n1)C(=O)O; assay: purified protein; type: biochemical, Klebsiella pneumoniae; details: 50 mM HEPES pH 7.0, 10 μM ZnSO4, 25 ± 2 °C, 100 nM enzyme, 25.0 °C
# [15] = system: CO/N=C(\C(=O)N[C@@H]1C(=O)N2C(C(=O)[O-])=C(C[N+]3(C)CCCC3)CS[C@H]12)c1csc(N)n1; assay: purified protein; type: biochemical, Klebsiella pneumoniae; details: 50 mM HEPES pH 7.0, 10 μM ZnSO4, 25 ± 2 °C, 100 nM enzyme, 25.0 °C
# [16] = system: C[C@@H](O)[C@H]1C(=O)N2C(C(=O)O)=C(SCCN=CN)C[C@H]12; assay: purified protein; type: biochemical, Klebsiella pneumoniae; details: 50 mM HEPES pH 7.0, 10 μM ZnSO4, 25 ± 2 °C, 100 nM enzyme, 25.0 °C
# [17] = system: C[C@@H](O)[C@H]1C(=O)N2C(C(=O)O)=C(S[C@@H]3CN[C@H](C(=O)N(C)C)C3)[C@H](C)[C@H]12; assay: purified protein; type: biochemical, Klebsiella pneumoniae; details: 50 mM HEPES pH 7.0, 10 μM ZnSO4, 25 ± 2 °C, 100 nM enzyme, 25.0 °C
compound,measurement,setting,value
Cc1nnc(SCC2=C(C(=O)O)N3C(=O)[C@@H](NC(=O)Cn4cnnn4)[C@H]3SC2)s1 [*Cefazolin (1st)],MIC,C. indologenes #3362,256 µg/mL
same,MIC,[1],2 µg/mL
CO[C@@]1(NC(=O)Cc2cccs2)C(=O)N2C(C(=O)O)=C(COC(N)=O)CS[C@@H]21 [*Cefoxitin (2nd)],MIC,C. indologenes #3362,32 µg/mL
same,MIC,[1],0.5 µg/mL
CC1(C)S[C@@H]2[C@H](NC(=O)[C@H](N)c3ccccc3)C(=O)N2[C@H]1C(=O)O [Ampicillin],MIC,C. indologenes #3362,512 µg/mL
same,MIC,[1],4 µg/mL
C[C@H]1[C@H](NC(=O)/C(=N\OC(C)(C)C(=O)O)c2csc(N)n2)C(=O)N1S(=O)(=O)O [Aztreonam],MIC,C. indologenes #3362,> 512 µg/mL
same,MIC,[1],< 0.02 µg/mL
CO/N=C(\C(=O)N[C@@H]1C(=O)N2C(C(=O)[O-])=C(C[N+]3(C)CCCC3)CS[C@H]12)c1csc(N)n1 [Cefepime],MIC,C. indologenes #3362,2 µg/mL
same,MIC,[1],0.031 µg/mL
CC(C)(O/N=C(\C(=O)N[C@@H]1C(=O)N2C(C(=O)[O-])=C(C[n+]3ccccc3)CS[C@H]12)c1csc(N)n1)C(=O)O [Ceftazidime],Km,IND-2ΔSig [2],> 1000 µM
same,MIC,C. indologenes #3362,16 µg/mL
same,MIC,[1],0.125 µg/mL
C[C@@H](O)[C@H]1C(=O)N2C(C(=O)O)=C(S[C@@H]3CN[C@H](CNS(N)(=O)=O)C3)[C@H](C)[C@H]12 [Doripenem],MIC,C. indologenes #3362,128 µg/mL
same,MIC,[1],0.063 µg/mL
same,Km,IND-2ΔSig [3],> 1000 µM
C[C@@H](O)[C@H]1C(=O)N2C(C(=O)O)=C(S[C@@H]3CN[C@H](C(=O)Nc4cccc(C(=O)O)c4)C3)[C@H](C)[C@H]12 [Ertapenem],MIC,C. indologenes #3362,64 µg/mL
same,MIC,[1],0.016 µg/mL
C[C@@H](O)[C@H]1C(=O)N2C(C(=O)O)=C(SCCN=CN)C[C@H]12 [Imipenem],MIC,C. indologenes #3362,128 µg/mL
same,MIC,[1],0.5 µg/mL
C[C@@H](O)[C@H]1C(=O)N2C(C(=O)O)=C(S[C@@H]3CN[C@H](C(=O)N(C)C)C3)[C@H](C)[C@H]12 [Meropenem],MIC,C. indologenes #3362,128 µg/mL
same,MIC,[1],0.031 µg/mL
same,Km,IND-2ΔSig [4],> 1000 µM
O=C(Cc1cccs1)N[C@@H]1C(=O)N2C(C(=O)O)=C(/C=C/c3ccc([N+](=O)[O-])cc3[N+](=O)[O-])CS[C@H]12 [Nitrocefin],Km,NDM-4ΔSig,11 ± 1.8 µM
CIM-1ΔSig (Chryseobacterium indologenes),Km,[5],324 ± 42 µM
same,kcat,[5],30 s⁻¹
same,kcat/Km,[5],93000 M⁻¹ s⁻¹
same,Km,[6],538 ± 56 µM
same,kcat,[6],15.3 s⁻¹
same,kcat/Km,[6],28000 M⁻¹ s⁻¹
same,Km,[7],94 ± 7 µM
same,kcat,[7],8.5 s⁻¹
same,kcat/Km,[7],90000 M⁻¹ s⁻¹
same,Km,[8],143 ± 19 µM
same,kcat,[8],15 s⁻¹
same,kcat/Km,[8],100000 M⁻¹ s⁻¹
same,Km,[9],91 ± 11 µM
same,kcat,[9],9.2 s⁻¹
same,kcat/Km,[9],100000 M⁻¹ s⁻¹
same,Km,[10],175 ± 24 µM
same,kcat,[10],21 s⁻¹
same,kcat/Km,[10],120000 M⁻¹ s⁻¹
same,Km,[11],33 ± 6 µM
same,kcat,[11],2.8 s⁻¹
same,kcat/Km,[11],85000 M⁻¹ s⁻¹
IND-2ΔSig (Chryseobacterium indologenes),Km,[7],728 ± 102 µM
same,kcat,[7],208 s⁻¹
same,kcat/Km,[7],290000 M⁻¹ s⁻¹
same,Km,[9],1069 ± 105 µM
same,kcat,[9],127 s⁻¹
same,kcat/Km,[9],120000 M⁻¹ s⁻¹
same,Km,[11],113 ± 6.9 µM
same,kcat,[11],78 s⁻¹
same,kcat/Km,[11],680000 M⁻¹ s⁻¹
NDM-4ΔSig (Klebsiella pneumoniae; M154L),Km,[12],159 ± 22 µM
same,kcat,[12],17 s⁻¹
same,kcat/Km,[12],110000 M⁻¹ s⁻¹
same,Km,[13],253 ± 19 µM
same,kcat,[13],51 s⁻¹
same,kcat/Km,[13],200000 M⁻¹ s⁻¹
same,Km,[14],93 ± 14 µM
same,kcat,[14],6.3 s⁻¹
same,kcat/Km,[14],68000 M⁻¹ s⁻¹
same,Km,[15],136 ± 16 µM
same,kcat,[15],5.4 s⁻¹
same,kcat/Km,[15],40000 M⁻¹ s⁻¹
same,Km,[16],151 ± 22 µM
same,kcat,[16],31 s⁻¹
same,kcat/Km,[16],210000 M⁻¹ s⁻¹
same,Km,[17],163 ± 22 µM
same,kcat,[17],25 s⁻¹
same,kcat/Km,[17],150000 M⁻¹ s⁻¹

# Source: publication PMC10920655, “Identification and characterization of CIM-1, a carbapenemase that adds to the family of resistance factors against last resort antibiotics” (Communications Biology, 2024)
